Some targets named below: SARS-CoV-2 EG.5.1 RBD (SARS-CoV-2 Omicron EG.5.1, strain); SARS-CoV-2 HV.1 RBD (SARS-CoV-2 Omicron HV.1, strain); SARS-CoV-2 BA.4/BA.5 RBD (SARS-CoV-2 Omicron BA.4/BA.5, strain); SARS-CoV-2 XBB.1.5 RBD (SARS-CoV-2 Omicron XBB.1.5, strain).
Common to all, as to test: BLI
Conditions in all cases: both partners purified

The next assay addresses T1, SARS-CoV-2 XBB.1.5 NTD (SARS-CoV-2 Omicron XBB.1.5, strain).
T1 chain: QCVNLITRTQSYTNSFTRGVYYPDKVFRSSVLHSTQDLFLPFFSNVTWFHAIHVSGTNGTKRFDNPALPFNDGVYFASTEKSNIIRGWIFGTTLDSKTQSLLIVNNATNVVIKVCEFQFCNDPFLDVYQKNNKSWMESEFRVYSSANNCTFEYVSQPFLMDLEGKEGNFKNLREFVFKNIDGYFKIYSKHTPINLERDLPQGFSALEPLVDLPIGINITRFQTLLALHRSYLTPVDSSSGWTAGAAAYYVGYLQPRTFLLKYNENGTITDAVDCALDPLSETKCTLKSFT

For another assay, the target named is T2, SARS-CoV-2 BA.1 NTD (SARS-CoV-2 Omicron BA.1, strain).
T2 chain: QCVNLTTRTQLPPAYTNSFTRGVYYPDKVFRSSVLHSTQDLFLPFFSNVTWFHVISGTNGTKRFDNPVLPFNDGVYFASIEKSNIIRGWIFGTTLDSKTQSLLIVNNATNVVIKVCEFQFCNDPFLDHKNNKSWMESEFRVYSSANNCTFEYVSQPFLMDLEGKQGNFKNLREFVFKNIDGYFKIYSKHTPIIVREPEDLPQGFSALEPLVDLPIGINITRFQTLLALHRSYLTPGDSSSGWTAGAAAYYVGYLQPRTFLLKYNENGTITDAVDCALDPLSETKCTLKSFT

The target in another assay is T3, SARS-CoV-2 BA.2 NTD (SARS-CoV-2 Omicron BA.2, strain).
T3 chain: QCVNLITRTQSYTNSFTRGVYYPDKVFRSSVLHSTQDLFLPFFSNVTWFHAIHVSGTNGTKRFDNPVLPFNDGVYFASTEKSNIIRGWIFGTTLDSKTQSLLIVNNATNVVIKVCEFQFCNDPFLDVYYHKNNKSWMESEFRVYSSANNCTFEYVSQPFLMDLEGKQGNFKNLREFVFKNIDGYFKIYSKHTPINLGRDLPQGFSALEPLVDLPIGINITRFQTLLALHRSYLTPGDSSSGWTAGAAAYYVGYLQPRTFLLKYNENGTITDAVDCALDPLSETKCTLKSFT

Assay [1] deals with T4, SARS-CoV-2 P.1 (Gamma) NTD (SARS-CoV-2 P.1 (Gamma), strain).
T4 chain: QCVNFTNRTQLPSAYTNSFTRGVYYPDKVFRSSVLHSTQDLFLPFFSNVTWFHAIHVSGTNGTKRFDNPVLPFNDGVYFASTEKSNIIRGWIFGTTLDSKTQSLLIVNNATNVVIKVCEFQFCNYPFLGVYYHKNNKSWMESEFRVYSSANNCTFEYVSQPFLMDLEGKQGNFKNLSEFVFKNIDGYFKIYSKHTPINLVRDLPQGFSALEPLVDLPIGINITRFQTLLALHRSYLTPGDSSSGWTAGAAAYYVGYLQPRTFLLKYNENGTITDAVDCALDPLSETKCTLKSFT

Another assay concerns the target T5, SARS-CoV-2 EG.5.1 NTD (SARS-CoV-2 Omicron EG.5.1, strain).
T5 chain: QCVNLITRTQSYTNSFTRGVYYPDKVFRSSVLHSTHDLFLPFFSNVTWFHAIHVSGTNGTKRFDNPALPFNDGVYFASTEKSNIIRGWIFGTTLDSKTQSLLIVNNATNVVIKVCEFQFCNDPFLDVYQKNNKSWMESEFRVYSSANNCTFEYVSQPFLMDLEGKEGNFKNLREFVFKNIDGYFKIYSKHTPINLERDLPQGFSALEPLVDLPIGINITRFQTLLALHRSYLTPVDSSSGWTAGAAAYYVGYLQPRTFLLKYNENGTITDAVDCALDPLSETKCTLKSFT

In another assay the target is T6, SARS-CoV-2 BA.2.75.2 NTD (SARS-CoV-2 Omicron BA.2.75.2, strain).
T6 chain: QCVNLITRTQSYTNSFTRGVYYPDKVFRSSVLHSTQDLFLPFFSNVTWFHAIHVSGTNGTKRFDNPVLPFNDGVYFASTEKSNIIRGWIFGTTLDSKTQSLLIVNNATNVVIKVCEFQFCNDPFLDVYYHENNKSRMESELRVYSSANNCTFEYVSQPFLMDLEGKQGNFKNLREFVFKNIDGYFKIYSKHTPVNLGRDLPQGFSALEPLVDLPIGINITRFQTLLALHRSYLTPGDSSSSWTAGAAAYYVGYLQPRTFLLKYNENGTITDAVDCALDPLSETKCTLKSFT

In another assay the target is T7, SARS-CoV-2 BA.4/BA.5 NTD (SARS-CoV-2 Omicron BA.4/BA.5, strain).
T7 chain: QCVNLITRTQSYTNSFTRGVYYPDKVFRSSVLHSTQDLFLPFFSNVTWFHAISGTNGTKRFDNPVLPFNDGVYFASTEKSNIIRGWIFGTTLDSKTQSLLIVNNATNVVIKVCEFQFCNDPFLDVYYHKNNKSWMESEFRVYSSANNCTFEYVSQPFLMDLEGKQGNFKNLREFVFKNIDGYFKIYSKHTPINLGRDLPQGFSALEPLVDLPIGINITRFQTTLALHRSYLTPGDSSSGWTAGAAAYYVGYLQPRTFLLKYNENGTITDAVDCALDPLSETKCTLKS

In another assay the target is T8, SARS-CoV-2 XBB.1.16 NTD (SARS-CoV-2 Omicron XBB.1.16, strain).
T8 chain: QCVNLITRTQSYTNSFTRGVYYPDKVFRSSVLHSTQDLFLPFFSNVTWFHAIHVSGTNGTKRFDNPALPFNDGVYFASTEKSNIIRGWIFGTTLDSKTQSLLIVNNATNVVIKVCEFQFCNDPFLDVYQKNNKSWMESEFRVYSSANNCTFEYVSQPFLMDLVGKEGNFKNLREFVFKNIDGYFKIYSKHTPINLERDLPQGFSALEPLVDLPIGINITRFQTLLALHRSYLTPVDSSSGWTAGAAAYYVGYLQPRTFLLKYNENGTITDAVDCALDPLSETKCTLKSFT

The target of assay [2] is T9, SARS-CoV-2 B.1.617.2 (Delta) NTD (SARS-CoV-2 B.1.617.2 (Delta), strain).
T9 chain: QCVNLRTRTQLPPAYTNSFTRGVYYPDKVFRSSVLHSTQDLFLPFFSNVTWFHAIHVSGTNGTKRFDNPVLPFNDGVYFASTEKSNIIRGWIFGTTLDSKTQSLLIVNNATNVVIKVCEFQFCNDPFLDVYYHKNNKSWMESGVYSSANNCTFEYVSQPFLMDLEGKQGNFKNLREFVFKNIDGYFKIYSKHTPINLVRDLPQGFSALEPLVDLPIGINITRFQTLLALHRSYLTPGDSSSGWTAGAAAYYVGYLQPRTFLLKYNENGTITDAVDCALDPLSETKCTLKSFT

B1: C1596 IgG (antibody, V domains shown)
VH: QVQLVQSGAEVKKPGSSVKVSCKASGGTFINYAVTWVRQAPGQGLEWMGGIIPILGIPNYAQKFQGRVTITADKSTSTAYMELSSLRSEDTAVYYCARVPQAGAAQGHYYYYYGMDVWGQGTTVTVSS
VL: not shown
notes: copies: 2 + 2
By Kd is commonly meant the constant that tells how readily two partners part at equilibrium. High values mean lower affinity, low ones higher affinity. Regarding B1, the dissociation constant Kd in the assay with SARS-CoV-2 XBB.1.5 NTD was 529 nM; with SARS-CoV-2 BA.1 NTD it was 88.2 nM; with SARS-CoV-2 BA.2 NTD, 685 nM; in [1], 282 nM; in the assay with SARS-CoV-2 EG.5.1 NTD, 410 nM; with SARS-CoV-2 BA.2.75.2 NTD, 607 nM. Further, the Kd was 674 nM in the assay with SARS-CoV-2 BA.4/BA.5 NTD, 591 nM with SARS-CoV-2 XBB.1.16 NTD and 124 nM in assay [2].

B2: C1533 IgG (antibody, V domains shown)
VH: QVQLVQSGAEVKKPGSSVKVSCKTSGVIFSRNAFSWVRQAPGQGLEWMGRIIPFLDVTNSAQEFQGRVTLNADKSTSTVYMELSSLRSEDTAIYYCARHNGDPYDFWSGYNTWAGGLDVWGQGTTVTVSS
VL: QSVLTQPPSASGTPGQRVTISCSGSGSNIGSNAVNWYQQLPGTAPKLLIYNQNQRPSGVPDRFSGSKSGTSASLAIGGLQSEDEADYYCATWDDNLSGLVFGGGTKLTVL
notes: copies: 2 + 2
By koff is commonly meant the rate constant with which the complex falls apart. The low end stands for a long-lived complex, the high end for a short-lived complex. A word on the kon: it is the rate constant with which the complex forms. The low end stands for slower complex formation, the high end for faster complex formation. With B2, in [1], binding was characterised by a dissociation constant (Kd) of 24.9 nM, the koff came to 0.00107 s⁻¹ and the kon turned out to be 43100 M⁻¹ s⁻¹.

B3: C1520 IgG (antibody, V domains shown)
VH: EVQLVESGGGLVQPGGSLRLACVASGFTFSIYEMNWVRQAPGKGLEWVSYITTSGHARYNADSVKGRFTISRDNSKNSFYLQMNSLRAEDTAIYYCARPQYHYYDTSTYHSYGFDIWGQGTMVTVSS
VL: QLVLTQSPSASASLGASVNLTCTLSSGHNSYAIAWHQQQPEKGPRYLMSLNSDGSHTKGDGIPDRFSGSSSGAERFLTISSLQSEDEADYYCQTWDTGIRVFGGGTRLTVL
notes: copies: 2 + 2
Turning to B3, the Kd in the assay with SARS-CoV-2 BA.1 NTD came to 118 nM; with SARS-CoV-2 BA.2 NTD, 14.3 nM; in assay [1] it was 230 nM; with SARS-CoV-2 BA.2.75.2 NTD it was 185 nM; in the assay with SARS-CoV-2 BA.4/BA.5 NTD it was 11.4 nM; in assay [2], 47 nM. Further, the koff stood at 0.00418 s⁻¹ with SARS-CoV-2 BA.1 NTD; 0.000514 s⁻¹ with SARS-CoV-2 BA.2 NTD; 0.00301 s⁻¹ in assay [1]; 0.00569 s⁻¹ in the assay with SARS-CoV-2 BA.2.75.2 NTD; 0.000528 s⁻¹ with SARS-CoV-2 BA.4/BA.5 NTD; 0.00141 s⁻¹ in [2]. In addition, the kon came to 35500 M⁻¹ s⁻¹ in the assay with SARS-CoV-2 BA.1 NTD; 36000 M⁻¹ s⁻¹ with SARS-CoV-2 BA.2 NTD; 13100 M⁻¹ s⁻¹ in assay [1]; 30700 M⁻¹ s⁻¹ with SARS-CoV-2 BA.2.75.2 NTD; 46300 M⁻¹ s⁻¹ with SARS-CoV-2 BA.4/BA.5 NTD; 30000 M⁻¹ s⁻¹ in [2].

B4: C952 IgG (antibody, V domains shown)
VH: EVQLVQSGAEVKKPGESLTISCKDSGNSFTIYWIGWVRQMPGKGLEWMGMIYPGDSGTRYSPSFEGQVTISADESINTAYLQWRSLKASDTAMYYCVRGIAVDWYFDLWGRGTLVTVSS
VL: QSVLTQPPSVSGAPGQRVTISCTGSSSNIGAGFDVHWYQQLPGTAPKLLIYGNNNRPSGVPDRFSGSKSATSASLAITGLQAEDEADYYCQSSDSSLSGLYVFGTGTNVIVL
notes: copies: 2 + 2
On to B4, for which the Kd with SARS-CoV-2 EG.5.1 RBD is 180000 nM; with SARS-CoV-2 HV.1 RBD, 939000 nM; with SARS-CoV-2 BA.4/BA.5 RBD, 8.22 nM; with SARS-CoV-2 XBB.1.5 RBD, 99.3 nM. Further, the koff with SARS-CoV-2 EG.5.1 RBD is 0.289 s⁻¹; with SARS-CoV-2 HV.1 RBD it was 0.037 s⁻¹; with SARS-CoV-2 BA.4/BA.5 RBD, 0.00358 s⁻¹; with SARS-CoV-2 XBB.1.5 RBD, 0.0046 s⁻¹. The kon with SARS-CoV-2 EG.5.1 RBD amounted to 1600 M⁻¹ s⁻¹; in the assay with SARS-CoV-2 HV.1 RBD, 39.4 M⁻¹ s⁻¹; with SARS-CoV-2 BA.4/BA.5 RBD it was 435000 M⁻¹ s⁻¹; in the assay with SARS-CoV-2 XBB.1.5 RBD, 46300 M⁻¹ s⁻¹.
